Patent US20090142345A1

Legend:
[1] = biological target: human DDR1b protein (Discoidin Domain Receptor 1, isoform b) (human) (UniProt Q08345); assay: cell-based or functional assay
[2] = biological target: DDR1bDN protein (dominant negative type DDR1b not having kinase activity) (human) (UniProt Q08345); assay: cell-based or functional assay

Row | cell protection inhibitory activity at 33 µg/mL, relative to the change induced by type IV collagen as 100%, HCT116 cells (Caspase-Glo 3/7 Assay) [1] | cell protection inhibitory activity at 1 mg/mL, relative to the absorbance change induced by type IV collagen as 100%, DDR1FL-#117 cells [1] | Substance | suppression of serum-removal-induced apoptosis by addition of type IV collagen in DDR1bDN-#206 cells (Cell Death Detection ELISA) [2] | suppression of serum-removal-induced apoptosis by addition of type IV collagen in DDR1FL-#117 cells (Cell Death Detection ELISA) [1]
1 | 0% | 1.7% | non-immunized rabbit IgG (Jackson Immunoresearch Company) (antibody) | – | –
2 | – | – | type IV collagen (Sigma Company) (ligand) | 34% | 53%
